Drawing on the supplement of paper PMC10567573, this text covers protein stability index for four proteins.

The data set in a line: protein stability index of a GFP-peptide fusion (GPS, HEK-293T) (PSI 1-6); higher = more stable. Conditions: c terminus: native.
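Also: lentivirally expressed fusion library, cells FACS-sorted into six equal-sized GFP/DsRed ratio bins, PSI computed from sequencing read fractions per bin weighted by bin number.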

For the protein EQRNSRWNTVLRAVKAKTHHLEPG [TRPA1 addG], for the setting “parent: NP_015628.1”, the protein stability index was found to be 3.92.

Take LPALFTDLYSQEITAEEAREALPG [SNF8 addG]: the protein stability index (parent: NP_009172.2) worked out at 2.8.

CQPISFSGFGAEDDDLGGLGLGPG [POLD2 addG]: under “parent: NP_006221.1”, the protein stability index was found to be 2.37.

As to DGWIRVSSDNVADLHEKYSGSTPG [PSMB5 addG], the protein stability index (parent: NP_002788.1) was found to be 3.
